These results are taken from publication PMC4330371, “Interaction between the RNA-dependent ATPase and poly(A) polymerase subunits of the TRAMP complex is mediated by short peptides and important for snoRNA processing” (Nucleic Acids Research, 2015).

Entries after “also recorded” stand apart in the source; their conditions may differ. No end group written: not given here.

Holding throughout (type): cell-based, Saccharomyces cerevisiae
The subject of assay [1] is Mtr4. The assay is described as follows: Yeast two-hybrid interaction with Mtr4. Set-up: key to Y2H interaction with Mtr4: +: growth on both SC-ADE and SC-HIS supplemented with 10 mM 3-AT; -: a failure to interact. The conditions noted are these: for yeast two-hybrid interaction with Mtr4: full-length Mtr4, growth on SC-ADE and SC-HIS; for Y2H interaction with Mtr4: Trf5 fragments, growth on SC-ADE and SC-HIS supplemented with 10 mM 3-AT. The text has this: (§1) The yeast two-hybrid assays used plasmids pOBD2 and pOAD that were previously described ([28]). The yeast two-hybrid plasmids for Mtr4 (pAV745), Mtr4-archless (pAV746) and Trf5–53–199 (pAV744) have been previously described as have the positive controls that contain MEC3 and RAD17 ([29]). Yeast two-hybrid plasmids with Trf5 residues 68–199 (pAV759), 83–199 (pAV760), 98–199 (pAV761), 118–199 (pAV766), 53–184 (pAV762), 53–169 (pAV763), 53–154 (pAV764), 53–139 (pAV767) and 53–124 (pAV768) were generated similarly to pAV744. Briefly, these regions of TRF5 were PCR amplified with primers that contain PvuII and PstI sites, digested with those restriction enzymes and cloned into pOAD. The yeast two-hybrid plasmids with Trf5 residues 98–117 were generated by cloning oligonucleotides for this region into the PvuII and PstI sites of pOAD.
Strain trf4Δ/trf5Δ/pRS416-TRF4 has been previously described (MATa, leu2-Δ0, ura3-Δ0, his3-Δ1, met15-Δ0, trf4Δ::NAT, trf5Δ::KAN; [33]). The TRF5 and trf5-Δ98–117 plasmids were introduced by transformation and selection on media lacking leucine. Transformants were then plated on media containing 5FOA to select for cells that had lost the pRS416-TRF4 plasmid. The rrp44-exo^−, rrp44-endo^− and rrp6Δ::KAN strains are isogenic to this strain and have been previously described ([31]). Yeast two-hybrid strains PJ69–4α and PJ69–4a have been previously described ([28],[34]). They are MATα and MATa, respectively, and in addition are both trp1–901, leu2–3,112, ura3–52, his3–200, gal4Δ, gal80Δ, LYS2::GAL1-HIS3, GAL2-ADE2, met2::GAL7-lacZ.
Yeast two-hybrid assays were carried out as previously described ([29]). Briefly, the MTR4 TRP1 plasmids were transformed into PJ69–4α and the TRF5 LEU2 plasmids were transformed into PJ69–4a. Transformants were crossed to each other and diploids that contain both plasmids were selected on SC-TRP-LEU. These diploids were then serially diluted and spotted on SC-TRP-LEU, SC-ADE and SC-HIS media.

Assay [2] concerns Mtr4-archless. The assay is described as follows: Yeast two-hybrid interaction with Mtr4-archless. The settings on record: growth on SC-ADE and SC-HIS.
Text: as §1
(§2) Strain trf4Δ/trf5Δ/pRS416-TRF4 has been previously described (MATa, leu2-Δ0, ura3-Δ0, his3-Δ1, met15-Δ0, trf4Δ::NAT, trf5Δ::KAN; [33]). The TRF5 and trf5-Δ98–117 plasmids were introduced by transformation and selection on media lacking leucine. Transformants were then plated on media containing 5FOA to select for cells that had lost the pRS416-TRF4 plasmid. The rrp44-exo^−, rrp44-endo^− and rrp6Δ::KAN strains are isogenic to this strain and have been previously described ([31]). […]

Assay [3] has as its system endogenous Mtr4. The assay is described as follows: Co-purification of endogenous Mtr4 with TAP-tagged Trf5. The settings on record: TAP-tagged Trf5 proteins expressed from endogenous promoter, IgG Sepharose, 2 h at 4°C, IP50/IP150 buffer pH 7.5, western blot with anti-Mtr4.
Text: The Trf5-Δ98–117-TAP and Trf5-TAP plasmids are low copy (CEN) plasmids derived from pRS415 ([30]) with the endogenous TRF5 promoter driving expression of Trf5 or Trf5-Δ98–117. The trf5-Δ98–117-TAP plasmid (pAV854) was generated by ligation of three DNA fragments. The first fragment contained the promoter and 5′ end of TRF5 and was generated by PCR with oligonucleotides oAV906 ([…]) and oAV870 ([…]) and digestion with NotI and SpeI. The second fragment contained the 3′ end of TRF5 and was generated by PCR with oligonucleotides oAV871 ([…]) and oAV869 ([…]) and digestion with SpeI and PstI. The third fragment was pAV476 ([31]) digested with NotI and PstI. The TRF5-TAP plasmid (pAV885) was subsequently generated by replacing an XbaI to BstAPI fragment that contained the internal deletion with the corresponding wild-type sequence.
as §2

“Trf5 98–117: yeast two-hybrid construct with Trf5 residues 98–117, conserved 20 amino acid peptide (NNSLEDNQDFIAFSDSSEDE; also: fused to Gal4 activation domain, end not given here)”: the “yeast two-hybrid interaction with Mtr4” value in assay [1] is “interacts with Mtr4”; in assay [1] (listed as amino acids 98–117 of Trf5), “sufficient for interaction with Mtr4; also recorded: indeed interacted with Mtr4”. Also, in assay [2], the “yeast two-hybrid interaction with Mtr4-archless” value is “interacts both with full-length and archless Mtr4”.

B1: full-length TAP-tagged Trf5: TAP-tagged full-length Trf5 expressed from the endogenous TRF5 promoter (protein)
chain: MTRLKAKYSPTKGKRKEDKHTKRMRKSSFTRTQKMLEVFNDNRSHFNKYESLAIDVEDDDTFGNLVLMENDKSDVDIPVIEEVTSSEDEQRAESSKRNNSLEDNQDFIAFSDSSEDETEQIKEDDDERSSFLLTDEHEVSKLTSQQSLNTESACNVEYPWIRNHCHSKQRRIADWLTSEIKDFVHYISPSKNEIKCRNRTIDKLRRAVKELWSDADLHVFGSFATDLYLPGSDIDCVVNSRNRDKEDRNYIYELARHLKNKGLAIRMEVIVKTRVPIIKFIEPQSQLHIDVSFERTNGLEAAKLIREWLRDSPGLRELVLIIKQFLHSRRLNNVHTGGLGGFTVICLVYSFLNMHPRIKSNDIDVLDNLGVLLIDFFELYGKNFGYDDVAISISDGYASYIPKSCWRTLEPSRSKFSLAIQDPGDPNNNISRGSFNMKDIKKAFAGAFELLVNKCWELNSATFKDRVGKSILGNVIKYRGQKRDFNDERDLVQNKAIIENERYHKRRTRIVQEDLFINDTEDLPVEEIYKLDEPAKKKQKAKKDKREGEIKKSAIPSPPPDFGVSRSKLKRKVKKTDQGSLLHQNNLSIDDLMGLSENDQESDQDQKGRDTPSGQDEKSPLETKTVDAQTRRDYWLSKGQAL
modifications: left off: TAP, end not stated, kept
notes: TAP-tagged full-length Trf5 expressed from the endogenous TRF5 promoter
Consider B1, for which the “co-purification of endogenous Mtr4 (words)” value in assay [3] is “results in co-purification of endogenous Mtr4”; in assay [3] (listed as full-length Trf5), “readily detectable”.

B2: Trf5 fragment 53-124: yeast two-hybrid construct of Trf5 residues 53–124 (protein, UniProt P48561 53-124, looked up, fragment)
chain: AIDVEDDDTFGNLVLMENDKSDVDIPVIEEVTSSEDEQRAESSKRNNSLEDNQDFIAFSDSSEDETEQIKED
modifications: yeast two-hybrid fusion
Take B2: the “Y2H interaction with Mtr4” value in assay [1] was “+”.

B3: Trf5 fragment 53-154: yeast two-hybrid construct of Trf5 residues 53–154 (protein, UniProt P48561 53-154, looked up, fragment)
chain: AIDVEDDDTFGNLVLMENDKSDVDIPVIEEVTSSEDEQRAESSKRNNSLEDNQDFIAFSDSSEDETEQIKEDDDERSSFLLTDEHEVSKLTSQQSLNTESAC
modifications: yeast two-hybrid fusion
As to B3, the “Y2H interaction with Mtr4” value in assay [1] is reported as “+”.

B4: Trf5 fragment 53-199: yeast two-hybrid construct of Trf5 residues 53–199 (protein)
chain: AIDVEDDDTFGNLVLMENDKSDVDIPVIEEVTSSEDEQRAESSKRNNSLEDNQDFIAFSDSSEDETEQIKEDDDERSSFLLTDEHEVSKLTSQQSLNTESACNVEYPWIRNHCHSKQRRIADWLTSEIKDFVHYISPSKNEIKCRNR
modifications: left off: Gal4 activation domain (from the vector pOAD), end not stated, kept
As to B4, in assay [1], the “Y2H interaction with Mtr4” value is listed as “+”.

B5: Trf5 fragment 53-169: yeast two-hybrid construct of Trf5 residues 53–169 (protein, UniProt P48561 53-169, looked up, fragment)
chain: AIDVEDDDTFGNLVLMENDKSDVDIPVIEEVTSSEDEQRAESSKRNNSLEDNQDFIAFSDSSEDETEQIKEDDDERSSFLLTDEHEVSKLTSQQSLNTESACNVEYPWIRNHCHSKQ
modifications: yeast two-hybrid fusion
Take B5: the “Y2H interaction with Mtr4” value in assay [1] was “+”.

B6: Trf5 fragment 98-199: yeast two-hybrid construct of Trf5 residues 98–199 (protein, UniProt P48561 98-199, looked up, fragment)
chain: NNSLEDNQDFIAFSDSSEDETEQIKEDDDERSSFLLTDEHEVSKLTSQQSLNTESACNVEYPWIRNHCHSKQRRIADWLTSEIKDFVHYISPSKNEIKCRNR
modifications: yeast two-hybrid fusion
On to B6, for which the “Y2H interaction with Mtr4” value in assay [1] is recorded as “+”.

B7: Trf5 fragment 118-199: yeast two-hybrid construct of Trf5 residues 118–199 (protein, UniProt P48561 118-199, looked up, fragment)
chain: TEQIKEDDDERSSFLLTDEHEVSKLTSQQSLNTESACNVEYPWIRNHCHSKQRRIADWLTSEIKDFVHYISPSKNEIKCRNR
modifications: yeast two-hybrid fusion
In the case of B7, in assay [1], the “Y2H interaction with Mtr4” value is recorded as “-”.

B8: Trf5 fragment 53-139: yeast two-hybrid construct of Trf5 residues 53–139 (protein, UniProt P48561 53-139, looked up, fragment)
chain: AIDVEDDDTFGNLVLMENDKSDVDIPVIEEVTSSEDEQRAESSKRNNSLEDNQDFIAFSDSSEDETEQIKEDDDERSSFLLTDEHEV
modifications: yeast two-hybrid fusion
As to B8, the “Y2H interaction with Mtr4” value in assay [1] is “+”.

B9: Trf5 fragment 53-184: yeast two-hybrid construct of Trf5 residues 53–184 (protein, UniProt P48561 53-184, looked up, fragment)
chain: AIDVEDDDTFGNLVLMENDKSDVDIPVIEEVTSSEDEQRAESSKRNNSLEDNQDFIAFSDSSEDETEQIKEDDDERSSFLLTDEHEVSKLTSQQSLNTESACNVEYPWIRNHCHSKQRRIADWLTSEIKDFV
modifications: yeast two-hybrid fusion
B9: the “Y2H interaction with Mtr4” value in assay [1] is reported as “+”.

B10: Trf5 fragment 68-199: yeast two-hybrid construct of Trf5 residues 68–199 (protein, UniProt P48561 68-199, looked up, fragment)
chain: MENDKSDVDIPVIEEVTSSEDEQRAESSKRNNSLEDNQDFIAFSDSSEDETEQIKEDDDERSSFLLTDEHEVSKLTSQQSLNTESACNVEYPWIRNHCHSKQRRIADWLTSEIKDFVHYISPSKNEIKCRNR
modifications: yeast two-hybrid fusion
For the molecule B10, the “Y2H interaction with Mtr4” value in assay [1] is listed as “+”.

B11: Trf5 fragment 83-199: yeast two-hybrid construct of Trf5 residues 83–199 (protein, UniProt P48561 83-199, looked up, fragment)
chain: VTSSEDEQRAESSKRNNSLEDNQDFIAFSDSSEDETEQIKEDDDERSSFLLTDEHEVSKLTSQQSLNTESACNVEYPWIRNHCHSKQRRIADWLTSEIKDFVHYISPSKNEIKCRNR
modifications: yeast two-hybrid fusion
On to B11, for which, in assay [1], the “Y2H interaction with Mtr4” value is “+”.
